B1: TRAF3IP2 (parent)
chain: APWNYHYHCPGSPDHQVPYGHDYP
B2: ANKRD9 (parent)
chain: LLEDMRASEAFHWDERGRAAAYSP

Variants of: B1
Test: protein stability index of a GFP-peptide fusion (GPS, HEK-293T) (PSI 1-6); higher = more stable
Conditions: c terminus: a fixed tail appended
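Also: lentivirally expressed fusions sorted by FACS into six bins by GFP to DsRed ratio, PSI derived from sequencing read proportions per bin multiplied by bin number.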

Protein stability index: each site, then its substitutions
P2: V 2.45; M 2.07; W 1.27; Y 1.51; I 1.58; R 2.28; A 2.66; L 1.76; F 1.95; K 2.04; G 1.59; E 3.07; Q 2.35; C 2.15; T 2.21; D 3.38; N 3.37; H 2.26; S 2.1
A1: P 2.71; E 2.91; F 2.12; M 2.5; R 2.1; S 2.18; L 2.08; Y 2.37; G 3.39; K 2.81; N 2.32; I 1.71; C 2.72; V 1.71; D 3.33; T 1.87; H 3.12; Q 1.53
W3: A 3.6; K 3.05; N 4.12; H 3.51; G 3.43; E 4.48; F 2.22; R 3.72; L 3.03; D 4.04; C 4.01; I 3.39; M 3.08; Q 3.54

Variants of: B2
Test: as above
Conditions: c terminus: a fixed tail appended

Protein stability index, by site and new letter:
A10: S 1.85; M 1.94; N 1.54; K 1.97; V 1.5; C 1.39; P 3.58; F 2.1; H 2.7; G 2.46; W 1.94; D 1.23; T 2.44; R 1.86; E 1.81; L 2.82
A21: T 1.43; W 1.42; H 1.45; D 2.06; C 2.15; E 2.53; V 3.25; F 2.55; Q 2.29; P 1.86; L 1.87; R 2.23; I 1.71; S 1.62; M 1.96; G 1.33; Y 2.08; N 2.15; K 1.95
E9: H 3.31; T 2.96; I 1.79; G 2.06; R 2.77; W 1.32; L 1.89; M 2.46; F 2.32; D 2.99; Y 2.48; P 2.8; A 3.12; K 3.29; Q 4.46; V 2.19; S 3
Y22: M 1.64; G 1.63; Q 2.39; S 2; A 3.01; L 1.81; R 1.81; D 2.2; I 2.17; C 1.8; H 1.76; E 2.62; T 4.08; K 2.18
H12: R 2.2; D 2.1; G 2.49; L 2.68; P 1.95; A 3.33; T 2.21; V 1.34; C 3.35; M 1.68; I 2.61; K 2.5; F 2.29; E 1.83
A20: R 1.1; D 2.64; T 2.36; Y 1.85; S 1.62; K 1.62; C 1.46; F 1.81; V 1.34; L 2.27; P 1.92; M 2.55; I 1.97; H 2.13; Q 1.48; E 1.92
S23: R 1.91; E 1.85; Y 1.74; K 2.05; M 2.68; A 2.09; H 1.98; I 2.61; F 1.35; Q 3.31; D 2.09; P 1.4; L 2.1; V 2.08; T 2.08; G 1.68; N 1.16
A7: I 1.96; Q 1.8; L 2.19; S 1.78; M 2.34; Y 1.8; W 2.3; P 4.21; G 3.01; K 1.52; T 2.15; H 3.62; V 2.35; R 1.76
R18: C 1.69; I 1.65; V 2.36; E 1.96; A 2.65; H 2.66; T 1.7; N 2.14; Y 1.71; P 1.56; G 2.12; K 1.8; F 2.22; Q 1; M 2.34; D 1.91; S 1.88; L 2.24
E15: D 1.56; F 2.95; Y 1.81; I 2.83; G 1.7; A 1.31; M 1.32; R 1.58; V 1.52; K 1.8; S 1.64; P 1.88; Q 1.94; L 1.5; C 2.68; T 1.91; H 2.68
G17: W 1.1; F 2.59; C 2.39; K 1.78; N 2.52; V 3.02; E 2.31; H 1.44; T 1.42; R 2.06
S8: N 4.13; M 3.04; W 3.13; K 3.96; C 2.5; R 2.88; Q 3.91; Y 2.7; H 3.13; G 2.19; I 1.95; T 1.82; D 3.89; P 3.3; F 3.31; L 2.73; A 3.3; V 2.82
R16: Q 1.9; E 1.93; C 1.56; T 1.74; M 1.32; G 1.88; I 3.12; K 1.32; A 2.24; H 2.44; L 2.41; F 1.86; S 1.44; V 1.79; N 1.93; W 1.58
P24: Q 1.58; K 1.53; F 1.23; A 2.1; V 1.68; H 2.19; Y 1.6; T 2.34; D 1.75; S 3.62; R 1.75; E 2.48; N 2.41; L 1.38
W13: I 1.87; H 2.66; N 2.2; C 2.53; K 2.93; D 2.24; G 2.61; R 2.94; M 1.84; P 2.74; V 2.05; L 2.41; F 2.05; E 2.06; A 2.16; Y 1.39
F11: Q 2.32; P 2.5; R 2.87; T 2.5; H 2.66; D 3.58; G 3.23; N 2.84; L 1.98; M 2.28; A 2.71; E 1.74; Y 2.03; K 3.72; I 1.78; S 2.91
D14: K 1.41; P 1.6; R 2.29; T 2.57; L 2.09; Y 1.98; V 1.35; N 2.11; Q 1.58; H 2.13; M 2.33; F 1.36; W 2.41; I 1.77
A19: E 1.55; R 1.84; F 1.54; P 2.31; S 2.23; N 1.84; D 1.36; H 1.69; Q 1.22; T 1.88; Y 1.28; V 1.99; K 2.27; I 1.03; L 2.39; C 2.26; W 1.53

From the supplement of paper PMC10567573
